Test results reported in patent US20090118185A1 (UNIVERSITY OF ROCHESTER, published 2009).
Numbering of substitutions follows the chain as printed.

Tests used:
[1] = target: T1, 336(P1′-P3′)562 factor VIIIa mutant
T1 chain 1: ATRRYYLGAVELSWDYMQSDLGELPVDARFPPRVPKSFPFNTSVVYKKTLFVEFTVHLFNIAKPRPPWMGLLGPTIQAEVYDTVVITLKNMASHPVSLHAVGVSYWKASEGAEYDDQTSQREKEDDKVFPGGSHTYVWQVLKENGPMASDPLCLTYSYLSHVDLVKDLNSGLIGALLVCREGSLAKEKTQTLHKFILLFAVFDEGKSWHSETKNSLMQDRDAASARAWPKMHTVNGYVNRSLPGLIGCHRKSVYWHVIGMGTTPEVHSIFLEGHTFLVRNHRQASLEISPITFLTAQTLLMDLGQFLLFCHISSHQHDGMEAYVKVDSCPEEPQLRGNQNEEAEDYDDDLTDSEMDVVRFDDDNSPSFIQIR
T1 chain 2: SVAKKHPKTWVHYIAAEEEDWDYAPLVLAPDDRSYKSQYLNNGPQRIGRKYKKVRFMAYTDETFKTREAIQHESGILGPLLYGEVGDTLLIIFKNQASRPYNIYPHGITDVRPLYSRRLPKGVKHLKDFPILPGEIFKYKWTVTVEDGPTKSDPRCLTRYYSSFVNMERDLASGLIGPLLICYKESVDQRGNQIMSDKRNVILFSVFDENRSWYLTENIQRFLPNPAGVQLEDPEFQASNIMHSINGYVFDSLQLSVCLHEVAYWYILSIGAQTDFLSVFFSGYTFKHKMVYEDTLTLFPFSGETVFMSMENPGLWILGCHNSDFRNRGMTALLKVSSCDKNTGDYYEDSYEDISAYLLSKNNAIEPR
T1 chain 3: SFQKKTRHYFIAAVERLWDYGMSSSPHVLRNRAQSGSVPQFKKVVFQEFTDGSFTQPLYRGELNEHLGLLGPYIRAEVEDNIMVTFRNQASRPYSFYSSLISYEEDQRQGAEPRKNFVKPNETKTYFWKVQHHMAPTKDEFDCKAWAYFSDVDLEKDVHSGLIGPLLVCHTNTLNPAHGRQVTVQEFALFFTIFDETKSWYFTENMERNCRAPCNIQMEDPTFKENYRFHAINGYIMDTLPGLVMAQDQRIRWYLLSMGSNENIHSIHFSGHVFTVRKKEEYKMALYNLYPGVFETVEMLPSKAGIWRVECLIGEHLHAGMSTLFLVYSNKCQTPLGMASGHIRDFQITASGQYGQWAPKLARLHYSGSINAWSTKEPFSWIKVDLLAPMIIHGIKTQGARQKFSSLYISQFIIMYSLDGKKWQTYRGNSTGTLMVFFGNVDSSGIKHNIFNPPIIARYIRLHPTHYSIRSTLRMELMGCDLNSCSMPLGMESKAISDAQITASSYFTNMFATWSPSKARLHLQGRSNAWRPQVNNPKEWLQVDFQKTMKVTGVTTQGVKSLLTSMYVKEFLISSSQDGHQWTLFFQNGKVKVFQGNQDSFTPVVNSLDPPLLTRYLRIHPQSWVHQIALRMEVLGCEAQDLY

[2] = target: T2, 336(P4-P3′)562 factor VIIIa mutant
T2 chain 1: T1 chain 1 with P333V, Q334D, L335Q
T2 chain 2: T1 chain 2
T2 chain 3: T1 chain 3

[3] = target: T3, WT factor VIII (B-domainless recombinant human factor VIII procofactor)
T3 chain 1: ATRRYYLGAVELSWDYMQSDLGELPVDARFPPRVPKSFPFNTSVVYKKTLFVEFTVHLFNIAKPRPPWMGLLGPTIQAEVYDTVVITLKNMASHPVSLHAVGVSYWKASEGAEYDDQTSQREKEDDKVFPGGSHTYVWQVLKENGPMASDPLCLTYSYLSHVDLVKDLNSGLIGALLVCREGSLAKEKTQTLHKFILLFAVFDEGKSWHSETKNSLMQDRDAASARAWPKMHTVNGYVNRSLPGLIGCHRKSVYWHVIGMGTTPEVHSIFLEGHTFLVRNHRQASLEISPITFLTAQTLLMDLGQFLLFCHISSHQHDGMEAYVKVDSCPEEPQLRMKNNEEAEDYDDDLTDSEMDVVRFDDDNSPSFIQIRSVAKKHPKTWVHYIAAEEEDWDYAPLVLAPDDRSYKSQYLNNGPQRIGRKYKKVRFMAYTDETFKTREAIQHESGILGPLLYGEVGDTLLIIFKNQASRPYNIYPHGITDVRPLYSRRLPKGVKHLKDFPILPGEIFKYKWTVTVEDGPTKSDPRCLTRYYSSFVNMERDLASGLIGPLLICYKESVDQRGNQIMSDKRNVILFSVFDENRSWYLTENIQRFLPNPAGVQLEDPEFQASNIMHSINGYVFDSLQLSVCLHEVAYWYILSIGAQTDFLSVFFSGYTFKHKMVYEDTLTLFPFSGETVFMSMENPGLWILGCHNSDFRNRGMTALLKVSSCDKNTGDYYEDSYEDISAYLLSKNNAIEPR
T3 chain 2: T1 chain 3

B1: human activated protein C (protein)
chain 1: ANSFLEELRHSSLERECIEEICDFEEAKEIFQNVDDTLAFWSKHVDGDQCLVLPLEHPCASLCCGHGTCIDGIGSFSCDCRSGWEGRFCQREVSFLNCSLDNGGCTHYCLEEVGWRRCSCAPGYKLGDDLLQCHPAVKFPCGRPWKRMEKKRSHL
chain 2: LIDGKMTRRGDSPWQVVLLDSKKKLACGAVLIHPSWVLTAAHCMDESKKLLVRLGEYDLRRWEKWELDLDIKEVFVHPNYSKSTTDNDIALLHLAQPATLSQTIVPICLPDSGLAERELNQAGQETLVTGWGYHSSREKEAKRNRTFVLNFIKIPVVPHNECSEVMSNMVSENMLCAGILGDRQDACEGDSGGPMVASFHGTWFLVGLVSWGEGCGLLHNYGVYTKVSRYLDWIHGHIRDKEAPQKSWAP
Which results are given for B1?
A1 Cleavage (nM A1/min/nM APC) (nM A1/min/nM APC) [1]: 1.1; A2 Cleavage (nM A2/min/nM APC) (nM A2/min/nM APC) [1]: 0.3; fold reduction of cleavage rate at the A1 site compared with WT [1]: reduced ˜16 and ˜9-fold, respectively, as compared with the WT protein; A1 Cleavage (nM A1/min/nM APC) (nM A1/min/nM APC) [2]: 0.1; A2 Cleavage (nM A2/min/nM APC) (nM A2/min/nM APC) [2]: 0.05; fold reduction of A1 subunit cleavage rate relative to WT [2]: reduced by ˜100-fold relative to WT; A2 Cleavage (nM A2/min/nM APC) (nM A2/min/nM APC) [3]: 0.1
